Source: patent US20240115603A1 (Zymeworks, published 2024)
Substitutions are numbered along the chain they refer to.

What was measured:
[1] = molecular target: T1, WT G-CSFR(Ig-CRH), purified, tag cleaved (human, UniProt Q99062 26-331); test: SPR (Biacore T200)
T1 construct: also called G-CSFRWT; wild type G-CSFR ECD
T1 chain: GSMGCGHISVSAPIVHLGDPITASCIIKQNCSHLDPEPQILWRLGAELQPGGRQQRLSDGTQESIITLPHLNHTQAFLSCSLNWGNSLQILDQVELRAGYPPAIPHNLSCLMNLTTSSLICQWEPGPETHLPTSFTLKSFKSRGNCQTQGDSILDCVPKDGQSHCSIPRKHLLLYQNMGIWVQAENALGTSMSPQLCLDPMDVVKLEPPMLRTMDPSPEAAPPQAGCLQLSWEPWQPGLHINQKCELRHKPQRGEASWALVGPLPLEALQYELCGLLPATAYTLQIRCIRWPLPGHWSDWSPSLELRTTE

[2] = molecular target: T2, G-CSFR(Ig-CRH)E design 34, purified, tag cleaved (human, UniProt Q99062 26-331); test: SPR (Biacore T200), G-CSFR(Ig-CRH)E amine-coupled, G-CSFE injected; KD relative to WT:WT control (larger = weaker)
T2 construct: SPR protein; also called Design 34 G-CSFR(Ig-CRH)E
T2 chain: T1 chain with R143E, R169D
Protocol: (§1) The SPR binding assays were carried out on a Biacore T200 instrument (GE Healthcare, Mississauga, ON, Canada) with PBS-T (PBS+0.05% (v/v) Tween 20) running buffer at a temperature of 25° C. CMS Series S sensor chip, Biacore amine coupling kit (NHS, EDC and 1 M ethanolamine), and 10 mM sodium acetate buffers were all purchased from GE Healthcare. PBS running buffer with 0.05% Tween20 (PBS-T) was purchased from Teknova Inc. (Hollister, CA).
(§2) To determine binding affinity of G-CSFE to G-CSFRE the G-CSFRE mutant was captured by standard amine coupling as described by the manufacturer (GE LifeSciences). Briefly, immediately after EDC/NHS activation, a 5 μg/mL solution of G-CSFRE in 10 mM NaOAc, pH 5.0, was injected at a flow rate of 5 μL/min until a receptor density of ˜700-900 RU was reached. The remaining active groups were quenched by a 420 s injection of 1 M ethanolamine hydrochloride-NaOH pH 8.5 at 10 μL/min. Using single-cycle kinetics, six concentrations of a two-fold dilution series of the corresponding G-CSFE mutant starting at 200 nM with a blank buffer control were sequentially injected at 25 μL/min for 300s with a 1800s dissociation phase, resulting in a set of sensorgrams with a buffer blank reference. The same sample titration was also performed on a reference cell with no variants captured. The chip was regenerated to prepare for the next injection cycle by one pulse of 10 mM glycine/HCl, pH 2.0, for 30 s at 30 μL/min.
(§3) Double-referenced sensorgrams from duplicate or triplicate repeat injections were analyzed using Biacore™ T200 Evaluation Software v3.0 and fit to the 1:1 Langmuir binding model.

[3] = molecular target: T1, WT G-CSFR(Ig-CRH), purified, tag cleaved; test: SPR (Biacore T200), WT G-CSFR(Ig-CRH) amine-coupled, G-CSFE injected; KD relative to WT:WT control (larger = weaker)
[4] = molecular target: T3, G-CSFR(Ig-CRH)E design 35, purified, tag cleaved (human, UniProt Q99062 26-331); test: SPR (Biacore T200), G-CSFR(Ig-CRH)E amine-coupled, G-CSFE injected; KD relative to WT:WT control (larger = weaker)
T3 construct: SPR protein; also called Design #35 G-CSFR(Ig-CRH)E
T3 chain: T1 chain with R143E, L173E, Q176E
Protocol: as §1, §2, §3

[5] = molecular target: T1, WT G-CSFR(Ig-CRH), purified, tag cleaved; test: SPR (Biacore T200), WT G-CSFR(Ig-CRH) amine-coupled
[6] = molecular target: T4, G-CSFR(Ig-CRH)E design 130, purified, tag cleaved (human, UniProt Q99062 26-331); test: SPR (Biacore T200), G-CSFR(Ig-CRH)E amine-coupled, G-CSFE injected; KD relative to WT:WT control (larger = weaker)
T4 construct: SPR protein; also called Design 130 G-CSFR(Ig-CRH)E
T4 chain: T1 chain with R43E, R169D
Protocol: as §1, §2, §3

[7] = molecular target: T5, G-CSFR(Ig-CRH)E design 134 (R41E_R141E_R167D), purified, tag cleaved (human, UniProt Q99062 26-331); test: as above
T5 construct: also called Design 134 G-CSFR(Ig-CRH)E; design 137 G-CSFR(Ig-CRH)E
T5 chain: T1 chain with R43E, R143E, R169D
Protocol: as §1, §2, §3

[8] = molecular target: T6, G-CSFR(Ig-CRH)E design 300, purified, tag cleaved (human, UniProt Q99062 26-331); test: as above
T6 construct: SPR protein; also called Design 300 G-CSFR(Ig-CRH)E
T6 chain: T1 chain with F77K, Q93K, R169D
Protocol: as §1, §2, §3

[9] = molecular target: T7, G-CSFR(Ig-CRH)E design 303, purified, tag cleaved (human, UniProt Q99062 26-331); test: SPR (Biacore T200), G-CSFR(Ig-CRH)E amine-coupled, G-CSFE injected; steady-state derived KD relative to steady-state WT:WT KD
T7 construct: SPR protein; also called Design 303 G-CSFR(Ig-CRH)E
T7 chain: T1 chain with E95K, R169D
Protocol: as §2, §3
(§4) Kinetic-derived affinity constants (KD) where obtained by fitting the association and dissociation phases of the curves. […] For the cases in which the kinetic parameters could not be fit an attempt was made to derive a steady state affinity constant.

[10] = molecular target: T8, G-CSFR(Ig-CRH)E design 304, purified, tag cleaved (human, UniProt Q99062 26-331); test: SPR (Biacore T200), G-CSFR(Ig-CRH)E amine-coupled, G-CSFE injected; KD relative to WT:WT control (larger = weaker)
T8 construct: SPR protein; also called Design 304 G-CSFR(Ig-CRH)E
T8 chain: T1 chain with R43E, E95K, R169D
Protocol: as §1, §2, §3

[11] = molecular target: T9, G-CSFR(Ig-CRH)E design 401, purified, tag cleaved (human, UniProt Q99062 26-331); test: SPR (Biacore T200), G-CSFR(Ig-CRH)E amine-coupled, G-CSFE injected; steady-state derived KD relative to steady-state WT:WT KD
T9 construct: SPR protein; also called Design 401 G-CSFR(Ig-CRH)E
T9 chain: T1 chain with R43E, R169D, R290D
Protocol: as §2, §3, §4

[12] = molecular target: T10, G-CSFR(Ig-CRH)E design 402, purified, tag cleaved (human, UniProt Q99062 26-331); test: as above
T10 construct: SPR protein; also called Design 402 G-CSFR(Ig-CRH)E
T10 chain: T1 chain with R43E, R169E, Q176E, R290E
Protocol: as §2, §3, §4

B1: G-CSFE design 34, purified, tag cleaved (ligand)
chain: TPLGPASSLPQSFLLKCLEQVRKIQGDGAALQEKLCATYKLCHPEELVLLGHSLGIPWAPLSSCPSQALQLAGCLSQLHSGLFLYQGLLQALEGISPELGPTLDTLQKDVARFATTIWQQMRRLGMAPALQPTQGAMPAFASAFQRRAGGVLVASHLQSFLEVSYRVLRHLAQAAAENLYFQ
notes: also called Design 34 G-CSFE
[1]
  fold weaker KD (vs WT:WT): ≥ 20 fold
[2]
  KD fold change (vs WT:WT): 5 fold
[3]
  KD fold change (vs WT:WT): 33 fold

B2: G-CSFE design 35, purified, tag cleaved (ligand)
chain: B1 chain with K108L, R112D, T115K
notes: also called Design 35 G-CSFE
[4]
  KD fold change (vs WT:WT): 3.3 fold
[3]
  KD fold change (vs WT:WT): 5 fold

B3: G-CSFE design 130 (E46R_L108K_D112R), purified, tag cleaved (ligand)
chain: B1 chain with E46R, R122E, R123E
notes: also called 130 G-CSF; G-CSF137
[5]
  binding result: no binding
[6]
  KD fold change (vs WT:WT): 0.9 fold
[7]
  KD fold change (vs WT:WT): 0.3 fold

B4: G-CSFE design 300, purified, tag cleaved (ligand)
chain: B1 chain with K40D, L41D, R122E, R123E
notes: also called Design 300 G-CSFE
[5]
  binding result: no binding
[8]
  KD fold change (vs WT:WT): 194 fold

B5: G-CSFE design 303, purified, tag cleaved (ligand)
chain: B1 chain with R122E, R123E, R147E
notes: also called Design 303 G-CSFE
[5]
  binding result: no binding
[9]
  KD fold change (vs WT:WT): 2.2 fold

B6: G-CSFE design 304, purified, tag cleaved (ligand)
chain: B1 chain with E46R, R122E, R123E, R147E
notes: also called 304 G-CSF
[5]
  binding result: no binding
[10]
  KD fold change (vs WT:WT): 6.5 fold

B7: G-CSFE design 401, purified, tag cleaved (ligand)
chain: B1 chain with E19K, E46R, R122E, R123E
notes: also called Design 401 G-CSFE
[5]
  binding result: no binding
[11]
  KD fold change (vs WT:WT): 0.6 fold

B8: G-CSFE design 402, purified, tag cleaved (ligand)
chain: B1 chain with E19K, E46R, K108L, R112K, T115K, R122E, R123E
notes: also called Design 402 G-CSFE
[5]
  binding result: no binding
[12]
  KD fold change (vs WT:WT): 0.8 fold
